Experimental data taken from patent publication US20260284207 (published 2026).
Where “and” joins values, the source holds several entries; their conditions need not be identical. Identical values can stand only once. FL = fluorescein (N-terminal fluorescent label)

Key:
Assay in all cases: FP
FBXO31 D334N/SKP1 = FBXO31 D334N/SKP1 (human, UniProt Q5XUX0)
[1] = biological target: T1, FBXO31/SKP1 complex (wild type) (human, UniProt Q5XUX0)
[2] = biological target: T1, FBXO31/SKP1 complex (wild type); remark: listed apart in the source

T1 sequence (Q5XUX0 whole entry, chain 1 of 2): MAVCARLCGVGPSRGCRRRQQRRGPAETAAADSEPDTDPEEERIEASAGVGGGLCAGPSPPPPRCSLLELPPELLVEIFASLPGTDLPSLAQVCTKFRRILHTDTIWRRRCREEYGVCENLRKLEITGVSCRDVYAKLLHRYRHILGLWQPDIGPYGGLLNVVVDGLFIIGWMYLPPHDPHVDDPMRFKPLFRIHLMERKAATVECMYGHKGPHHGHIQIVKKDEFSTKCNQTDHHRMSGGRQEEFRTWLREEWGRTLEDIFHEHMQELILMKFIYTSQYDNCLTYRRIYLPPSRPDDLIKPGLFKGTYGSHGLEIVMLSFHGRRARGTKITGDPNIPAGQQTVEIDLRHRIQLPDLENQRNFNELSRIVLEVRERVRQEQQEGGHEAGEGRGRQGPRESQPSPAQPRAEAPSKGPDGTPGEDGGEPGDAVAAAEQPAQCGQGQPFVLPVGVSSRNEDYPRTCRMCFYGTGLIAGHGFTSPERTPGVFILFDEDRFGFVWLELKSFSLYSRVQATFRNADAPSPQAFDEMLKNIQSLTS
T1 sequence (chain, as listed by the source, chain 2 of 2): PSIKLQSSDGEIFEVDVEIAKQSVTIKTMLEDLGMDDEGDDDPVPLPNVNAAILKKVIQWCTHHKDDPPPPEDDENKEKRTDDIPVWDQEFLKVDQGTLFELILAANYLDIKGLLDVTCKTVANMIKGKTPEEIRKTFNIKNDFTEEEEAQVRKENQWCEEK
FBXO31 D334N/SKP1, sequence (Q5XUX0 whole entry D334N, chain 1 of 2): as the sequence (Q5XUX0 whole entry, chain 1 of 2) above, with D334N counted along it
FBXO31 D334N/SKP1, sequence (chain, as listed by the source D334N, chain 2 of 2): as the sequence (chain, as listed by the source, chain 2 of 2) above

binding result (FBXO31 D334N/SKP1)	binding result [1]	Kd [2]	Binder
no binding	no binding	–	{FL}-KAATPTDVRDVDI-OH [FL-CycD1-OH]
–	–	59 nM	{FL}-KAATPTDVRDVDI-NH2 [FL-CycD1-NH2]
–	no binding	–	{FL}-KEEDEKGSRASDDFRDLR-OH [FL-Pep2-OH (non-amidated model peptide)]
–	–	22 nM and 16 nM	{FL}-KEEDEKGSRASDDFRDLR-NH2 [FL-Pep2-NH2 (amidated model/screening peptide)]
